This note sets out measurements from patent US20040208867A1, “Protein having active sulfate transporter activity and method for detecting canceration of tissue” (NATIONAL INSTITUTE OF ADVANCED INDUSTRIAL SCIENCE AND …, priority 2002, published 2004).

Substrate in series [1]: Nc1ncnc2c1ncn2[C@@H]1O[C@H](COP(=O)(O)OS(=O)(=O)O)[C@@H](OP(=O)(O)O)[C@H]1O
The series can be described thus: cells, lysate or membranes. The following applies: other: transport of PAPS (35S-labeled), P100 fraction, pH 7.5, PAPS concentration varied, FIG. 3, FIG. 4, 37.0 °C.

A short description of series [2]: transport activity of the P100 fraction for labeled nucleotide sugars instead of PAPS. The format is biochemical, yeast strain W303a. The following applies: labeled nucleotide sugars instead of 35S-labeled PAPS (FIG. 2).
Experimental: Five minutes thereafter, 10 volumes of an ice-cooled reaction terminating solution (20 mM Tris-HCl buffer (pH 7.5) containing 0.25 M sucrose, 5 mM MgCl2 and 150 mM KCl) was added thereto, and the mixture was filtered through a nitrocellulose filter of 0.45 μm in pore size. This filter was washed with 10 ml of the iced-cooled reaction terminating solution, and the radioactivity of this filter was measured using a liquid scintillation counter (FIG. 1). Respective fractions prepared using a transformant of a yeast strain W303a transformed with YER352 GAPII alone were used as negative controls.

B1: human STP3 (GenBank accession No. XM_059770), protein having active sulfate (PAPS) transport activity, SEQ ID NO:2 (Homo sapiens) (protein)
chain: MDARWWAVVVLAAFPSLGAGGETPEAPPESWTQLWFFRFVVNAAGYASFMVPGYLLVQYFRRKNYLETGRGLCFPLVKACVFGNEPKASDEVPLAPRTEAAETTPMWQALKLLFCATGLQVSYLTWGVLQERVMTRSYGATATSPGERFTDSQFLVLMNRVLALIVAGLSCVLCKQPRHGAPMYRYSFASLSNVLSSWCQYEALKFVSFPTQVLAKASKVIPVMLMGKLVSRRSYEHWEYLTATLISIGVSMFLLSSGPEPRSSPATTLSGLILLAGYIAFDSFTSNWQDALFAYKMSSVQMMFGVNFFSCLFTVGSLLEQGALLEGTRFMGRHSEFAAHALLLSICSACGQLFIFYTIGQFGAAVFTIIMTLRQAFAILLSCLLYGHTVTVVGGLGVAVVFAALLLRVYARGRLKQRGKKAVPVESPVQKV
The Km is the substrate concentration at which the rate is half of its maximum. Take B1: the Km in series [1] was 0.7 µM. The “activity to specifically transport substances other than PAPS” value in series [2] is listed as “substantially has no activity”.
